Laboratory results published in paper PMC3459973.

Molecular target: TFAP2 (AP-2) (UniProt P05549)
Test: DNA pull-down, SILAC MS and immunoblot
Details: PBB: 150 mM NaCl, 50 mM Tris/HCl pH 8.0, 10 mM MgCl2, 0.5% NP-40, protease inhibitor; 200 ug SILAC nuclear extract, 2 h at 4 C (automated: 8 C); elution 16 mM …

TFAP2 (AP-2), sequence (P05549 whole entry): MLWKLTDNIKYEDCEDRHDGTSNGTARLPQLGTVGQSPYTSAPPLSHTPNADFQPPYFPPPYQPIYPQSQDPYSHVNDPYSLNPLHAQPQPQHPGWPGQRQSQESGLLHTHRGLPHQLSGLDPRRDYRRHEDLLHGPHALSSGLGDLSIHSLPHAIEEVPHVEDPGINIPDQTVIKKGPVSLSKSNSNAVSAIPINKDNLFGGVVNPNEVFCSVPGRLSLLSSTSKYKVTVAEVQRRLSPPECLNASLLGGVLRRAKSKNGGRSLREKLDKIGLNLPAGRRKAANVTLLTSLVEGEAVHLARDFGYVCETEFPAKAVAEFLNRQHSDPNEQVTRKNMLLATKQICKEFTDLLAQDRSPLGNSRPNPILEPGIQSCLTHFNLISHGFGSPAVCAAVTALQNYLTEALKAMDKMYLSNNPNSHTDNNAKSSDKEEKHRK

Sequence: AACAAAACTGCAGGATCGAACTGACCGCCCGGGGCACGTGTC / TTGACACGTGCCCCGGGCGGTCAGTTCGATCCTGCAGTTTTG [AP2_C]
- binding signal (SILAC ratio C/A): 10
